Test results from patent US20240141059A1 (Bristol-Myers Squibb, published 2024).
“And” between values parts separate entries of the source, which are not always exact repeats. Equal entries are not always repeated. Where two headings read alike, the source gives them in different places.

Experiments:
human CD73 on cells [1] = target: T1, human CD73 on cells (human, UniProt P21589 27-549); experiment: cell-based or functional assay
T1 sequence (looked up): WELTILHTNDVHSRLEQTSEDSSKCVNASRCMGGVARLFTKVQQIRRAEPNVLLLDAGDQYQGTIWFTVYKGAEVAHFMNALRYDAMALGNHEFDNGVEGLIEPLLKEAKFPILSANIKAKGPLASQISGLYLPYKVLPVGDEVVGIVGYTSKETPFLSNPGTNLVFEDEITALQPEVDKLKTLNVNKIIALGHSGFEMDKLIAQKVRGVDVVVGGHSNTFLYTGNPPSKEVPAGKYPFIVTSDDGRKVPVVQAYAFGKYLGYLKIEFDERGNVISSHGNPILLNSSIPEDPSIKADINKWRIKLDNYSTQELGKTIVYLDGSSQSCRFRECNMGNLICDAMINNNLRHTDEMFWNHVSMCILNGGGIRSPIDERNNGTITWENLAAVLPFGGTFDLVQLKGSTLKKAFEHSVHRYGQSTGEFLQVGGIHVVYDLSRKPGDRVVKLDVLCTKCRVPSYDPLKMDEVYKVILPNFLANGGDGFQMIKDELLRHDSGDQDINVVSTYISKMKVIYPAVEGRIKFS

hCD73-his [2] = target: T2, hCD73-his (human, UniProt P21589 26-546); experiment: SEC-MALS, target:mAb 1:1, 4 uM + 4 uM
T2 construct: range 26-546; also called full length extracellular domain of human-CD73
T2 sequence (looked up): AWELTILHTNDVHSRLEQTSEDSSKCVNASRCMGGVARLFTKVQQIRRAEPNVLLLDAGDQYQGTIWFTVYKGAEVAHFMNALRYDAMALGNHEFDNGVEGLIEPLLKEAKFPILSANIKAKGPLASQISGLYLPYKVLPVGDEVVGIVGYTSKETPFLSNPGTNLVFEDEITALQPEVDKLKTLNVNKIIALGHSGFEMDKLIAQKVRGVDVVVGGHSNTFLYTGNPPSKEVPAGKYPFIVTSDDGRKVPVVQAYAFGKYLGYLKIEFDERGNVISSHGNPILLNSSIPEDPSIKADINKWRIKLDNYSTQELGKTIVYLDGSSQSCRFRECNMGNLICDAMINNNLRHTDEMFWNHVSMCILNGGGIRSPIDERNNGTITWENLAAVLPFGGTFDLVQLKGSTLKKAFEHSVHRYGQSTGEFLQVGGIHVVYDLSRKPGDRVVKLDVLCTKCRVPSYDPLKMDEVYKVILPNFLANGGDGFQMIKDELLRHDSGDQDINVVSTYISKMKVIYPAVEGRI
Procedure: (§1) The structure and oligomeric state of CD73/antibody complexes in solution were examined by SEC-MALS and DLS.
(§2) The oligomeric state of CD73/antibody complexes were examined by size-exclusion chromatography coupled to an in-line multi-angle light scattering detector (SEC-MALS). Isocratic separations were performed on a Shodex PROTEIN KW-803 column connected to an Prominence Shimadzu UFLC in buffer containing 200 mM K₂HPO₄, 150 mM NaCl, pH 6.8, containing 0.02% Na azide (0.1 μm filtered) running at 0.5 mL/min. Samples were injected onto the column using a SIL-20AC Prominence Shimadzu® autosampler, and data were obtained from three online detectors connected in series: a Prominence SPD-20AD diode array UV/vis spectrophotometer followed by a Wyatt miniDAWN™ TREOS Multi-Angle Light Scattering Detector then a Wyatt Optilab T-rEX Refractive Index Detector® instrument. Data were collected and analyzed using Astra® (Wyatt) and Labsolutions® (Shimadzu) software.

N-hCD73-his [3] = target: T3, N-hCD73-his (human, UniProt P21589 26-336, limits assumed); experiment: SEC-MALS, target:mAb 2:1, 8 uM + 4 uM
T3 construct: monomeric in solution by SEC-MALS; also called N-terminal domain of hCD73
T3 sequence (looked up): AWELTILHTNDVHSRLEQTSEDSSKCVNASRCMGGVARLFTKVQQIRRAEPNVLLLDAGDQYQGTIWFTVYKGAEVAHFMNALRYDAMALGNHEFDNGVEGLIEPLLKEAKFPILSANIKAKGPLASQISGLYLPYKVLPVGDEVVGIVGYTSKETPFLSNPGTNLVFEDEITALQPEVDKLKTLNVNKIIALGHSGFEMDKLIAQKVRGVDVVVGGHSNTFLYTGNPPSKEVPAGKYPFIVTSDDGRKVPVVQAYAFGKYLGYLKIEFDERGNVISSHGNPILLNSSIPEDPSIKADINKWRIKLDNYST
Procedure: as §1, §2

hCD73-his [4] = target: T2, hCD73-his; experiment: DLS, target:mAb 1:1, 4 uM + 4 uM; unit from the text
Procedure: as §1
(§3) Dynamic light scattering (DLS) studies were performed on a Wyatt DynaPro® plate reader in 384 well plates at 25° C. Experimental parameters were 20 acquisitions of 5 s each per measurement, and measurements were recorded in quadruplicate, with the average and standard deviation reported. Intensity autocorrelation functions were fitted using the “Regularization” algorithm in the Dynamics® software (Wyatt Technologies®).

N-hCD73-his [5] = target: T3, N-hCD73-his; experiment: DLS, target:mAb 2:1, 8 uM + 4 uM; unit from the text
Procedure: as §1, §3

human GITR = target: T4, human GITR (human, UniProt Q9Y5U5 26-241); experiment: cell-based or functional assay
T4 sequence (looked up): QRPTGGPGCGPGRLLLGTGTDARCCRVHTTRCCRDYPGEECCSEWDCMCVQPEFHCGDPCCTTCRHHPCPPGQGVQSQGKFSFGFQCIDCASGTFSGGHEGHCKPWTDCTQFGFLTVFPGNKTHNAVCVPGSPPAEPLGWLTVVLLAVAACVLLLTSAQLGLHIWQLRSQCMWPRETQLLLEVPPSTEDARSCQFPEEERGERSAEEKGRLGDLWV

human CD73 on cells [6] = target: T1, human CD73 on cells; experiment: cell-based or functional assay; remark: listed apart in the source
N-hCD73-his [7] = target: T3, N-hCD73-his; experiment: SPR, mAb captured on protein A
Procedure: The affinity of the antibodies for human CD73 was measured to determine whether the change of the constant region affects them. The affinities were determined by Surface Plasmon Resonance (SPR) as follows. […] For these experiments, protein A (Pierce) was immobilized to a density of 3000-4000 RU on flow cells 1˜4 of a CMS sensor chip (GE Healthcare) using standard ethyl(dimethylaminopropyl) carbodiimide (EDC)/N-hydroxysuccinimide (NHS) chemistry, with ethanolamine blocking, in a running buffer of 0.01 M HEPES pH 7.4, 0.15 M NaCl, 3 mM EDTA, 0.005% v/v tween 20. […] The running buffer for the kinetic experiments was 10 mM sodium phosphate, 130 mM sodium chloride, 0.05% tween 20, pH 7.1. The surfaces were regenerated after each cycle using two 30 s pulses of 10 mM glycine pH 1.5 at a flow rate of 30 μl/min. Sensogram data was double-referenced and then fitted to a 1:1 Langmuir model using Biacore® T100 evaluation software v2.0.4, to determine the association rate constant (ka), the dissociation rate constant (kd), and the equilibrium dissociation constant (KD).

hCD73-his [8] = target: T2, hCD73-his; experiment: SEC-MALS, target:mAb 1:1, 2.5 uM + 2.5 uM
Procedure: as §1, §2

hCD73-his [9] = target: T2, hCD73-his; experiment: DLS, target:mAb 1:1, 2.5 uM + 2.5 uM; unit from the text
Procedure: as §1, §3

human CD73 on cells [10] = target: T1, human CD73 on cells; experiment: cell-based or functional assay; remark: listed apart in the source
human CD73 on cells [11] = target: T1, human CD73 on cells; experiment: cell-based or functional assay; remark: listed apart in the source

B1: CD73.3-IgG1.1 (antibody, V domains shown)
VH: EVQLVESGGGLVQPGRSLRLSCAASGFTFDDYAMHWVRQAPGKGLEWVSGISWKSGSIGYADSVKGRFTISRDNAKNSLYLQMNSLRAEDTVLYYCVKGYYVILTGLDYWGQGTLVTVSS
VL: not shown
notes: also called CD73.3-IgG1.1f; 3-Vh-hHC-IgG1.1f/4C3Vk1
% internalization, H228 cells (human CD73 on cells [1]): -47% | MW Peak 2 (hCD73-his [2]): 530 kDa | MW Peak 1 (N-hCD73-his [3]): 170 kDa | Rh (hCD73-his [4]): 10.8 nm | Rh (N-hCD73-his [5]): 5.8 nm

B2: GITR.6.G2 (antibody, human IgG2, kappa)
heavy: QVQLVESGGGVVQPGRSLRLSCAASGFTFSSYGMHWVRQAPGKGLEWVAVIWYEGSNKYYADSVKGRFTISRDNSKNTLYLQMNSLRAEDTAVYYCARGGSMVRGDYYYGMDVWGQGTTVTVSSASTKGPSVFPLAPCSRSTSESTAALGCLVKDYFPEPVTVSWNSGALTSGVHTFPAVLQSSGLYSLSSVVTVPSSNFGTQTYTCNVDHKPSNTKVDKTVERKCCVECPPCPAPPVAGPSVFLFPPKPKDTLMISRTPEVTCVVVDVSHEDPEVQFNWYVDGVEVHNAKTKPREEQFNSTFRVVSVLTVVHQDWLNGKEYKCKVSNKGLPAPIEKTISKTKGQPREPQVYTLPPSREEMTKNQVSLTCLVKGFYPSDIAVEWESNGQPENNYKTTPPMLDSDGSFFLYSKLTVDKSRWQQGNVFSCSVMHEALHNHYTQKSLSLSPGK
light: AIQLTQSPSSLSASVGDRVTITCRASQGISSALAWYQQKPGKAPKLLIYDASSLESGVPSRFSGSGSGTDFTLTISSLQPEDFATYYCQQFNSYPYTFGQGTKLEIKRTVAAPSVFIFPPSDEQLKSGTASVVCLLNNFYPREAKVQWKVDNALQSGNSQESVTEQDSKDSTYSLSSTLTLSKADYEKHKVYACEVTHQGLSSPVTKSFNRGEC
NFKB signaling (phospho-p65), CD4+ T cells, EC50 (human GITR): 12.8 nM | NFKB signaling (phospho-p65), CD4+ T cells, Emax (human GITR): 69% | NFKB signaling (phospho-p65), CD8+ T cells, EC50 (human GITR): 9 nM | NFKB signaling (phospho-p65), CD8+ T cells, Emax (human GITR): 85%

B3: CD73.10-IgG2-C219S-IgG1.1 (antibody)
heavy: QVQLVESGGGVVQPGRSLRLSCAASGFTFSNYGMHWVRQAPGKGLEWVAVIWYDESNKYYPDSVKGRFTISRDNSKNTLYLQMNSLRAEDTAVYYCARGGSSWYPDSFDIWGQGTMVTVSSASTKGPSVFPLAPCSRSTSESTAALGCLVKDYFPEPVTVSWNSGALTSGVHTFPAVLQSSGLYSLSSVVTVPSSNFGTQTYTCNVDHKPSNTKVDKTVERKSCVECPPCPAPPVAGPSVFLFPPKPKDTLMISRTPEVTCVVVDVSHEDPEVKFNWYVDGVEVHNAKTKPREEQYNSTYRVVSVLTVLHQDWLNGKEYKCKVSNKALPSSIEKTISKAKGQPREPQVYTLPPSREEMTKNQVSLTCLVKGFYPSDIAVEWESNGQPENNYKTTPPMLDSDGSFFLYSKLTVDKSRWQQGNVFSCSVMHEALHNHYTQKSLSLSPG
light: not shown
notes: also called CD73.10-IgG2CS-IgG1.1f; CD73.10-Vh-hHC-IgG2-C219S-IgG1.1f
internalization EC50, Calu6 cells, 2 h (human CD73 on cells [6]): 0.87 nM | internalization Ymax (% of 100 nM 11F11), Calu6 cells (human CD73 on cells [6]): 99% | % internalization, Calu6 cells (human CD73 on cells [1]): 91% | % internalization, H228 cells (human CD73 on cells [1]): 92% | % internalization, H2030 cells (human CD73 on cells [1]): 87% | % internalization, HCC15 cells (human CD73 on cells [1]): 91% | internalization T1/2, Calu6 cells (human CD73 on cells [1]): 3.1 min | internalization T1/2, H228 cells (human CD73 on cells [1]): 9.4 min | internalization T1/2, H2030 cells (human CD73 on cells [1]): 4.3 min | internalization T1/2, HCC15 cells (human CD73 on cells [1]): 3 min | Kd (N-hCD73-his [7]): 5.7 nM and 6.8 nM | koff (N-hCD73-his [7]): 0.0014 s⁻¹ and 0.0016 s⁻¹ | kon (N-hCD73-his [7]): 240000 M⁻¹ s⁻¹ and 230000 M⁻¹ s⁻¹ | MW Peak 1 (hCD73-his [8]): 2000 kDa | MW Peak 2 (hCD73-his [8]): 320 kDa | MW Peak 3 (hCD73-his [8]): 390 kDa | Rh (hCD73-his [9]): 25.6 nm

B4: CD73.4-IgG2-C219S-IgG1.1f (antibody)
heavy: QVQLVESGGGVVQPGRSLRLSCAASGFTFSNYGMHWVRQAPGKGLEWVAVILYDGSNKYYPDSVKGRFTISRDNSKNTLYLQMNSLRAEDTAVYYCARGGSSWYPDSFDIWGQGTMVTVSSASTKGPSVFPLAPCSRSTSESTAALGCLVKDYFPEPVTVSWNSGALTSGVHTFPAVLQSSGLYSLSSVVTVPSSNFGTQTYTCNVDHKPSNTKVDKTVERKSCVECPPCPAPPVAGPSVFLFPPKPKDTLMISRTPEVTCVVVDVSHEDPEVKFNWYVDGVEVHNAKTKPREEQYNSTYRVVSVLTVLHQDWLNGKEYKCKVSNKALPSSIEKTISKAKGQPREPQVYTLPPSREEMTKNQVSLTCLVKGFYPSDIAVEWESNGQPENNYKTTPPVLDSDGSFFLYSKLTVDKSRWQQGNVFSCSVMHEALHNHYTQKSLSLSPGK
light: not shown
notes: also called CD73.4-IgG2.3G1.1f-KH; CD73.4-IgG2CS-IgG1.1f
internalization T1/2, Calu6 (human CD73 on cells [10]): 34 min | internalization T1/2, NCI-H292 (human CD73 on cells [10]): 15.8 min | internalization Ymax, Calu6 (human CD73 on cells [10]): 76.8% | internalization Ymax, NCI-H292 (human CD73 on cells [10]): 77.6% | internalization T1/2, Calu6 (human CD73 on cells [11]): 21 min | internalization T1/2, NCI-H292 (human CD73 on cells [11]): 16.6 min | internalization Ymax, Calu6 (human CD73 on cells [11]): 81% | internalization Ymax, NCI-H292 (human CD73 on cells [11]): 90.3% | MW Peak 1 (hCD73-his [8]): 3600 kDa | MW Peak 2 (hCD73-his [8]): 1100 kDa | MW Peak 3 (hCD73-his [8]): 580 kDa | Rh (hCD73-his [9]): 31.2 nm
